Measurements: IntAct's records for PubMed 31515488

Tests used:
erep1_human ENTREP1 = erep1_human ENTREP1 (UniProt Q15884)
hnrl1_human HNRNPUL1 = hnrl1_human HNRNPUL1 (UniProt Q9BUJ2)
fxl18_human FBXL18 = fxl18_human FBXL18 (UniProt Q96ME1)
pdli7_human PDLIM7 = pdli7_human PDLIM7 (UniProt Q9NR12)
ppla_human PLN = ppla_human PLN (UniProt P26678)
vatl_human ATP6V0C = vatl_human ATP6V0C (UniProt P27449)
sc22a_human SEC22A = sc22a_human SEC22A (UniProt Q96IW7)
mal_human MAL = mal_human MAL (UniProt P21145)
emp3_human EMP3 = emp3_human EMP3 (UniProt P54852)
hem1_human ALAS1 = hem1_human ALAS1 (UniProt P13196)
fsd2_human FSD2 = target: T1, fsd2_human FSD2 (UniProt A1L4K1)
T1 sequence: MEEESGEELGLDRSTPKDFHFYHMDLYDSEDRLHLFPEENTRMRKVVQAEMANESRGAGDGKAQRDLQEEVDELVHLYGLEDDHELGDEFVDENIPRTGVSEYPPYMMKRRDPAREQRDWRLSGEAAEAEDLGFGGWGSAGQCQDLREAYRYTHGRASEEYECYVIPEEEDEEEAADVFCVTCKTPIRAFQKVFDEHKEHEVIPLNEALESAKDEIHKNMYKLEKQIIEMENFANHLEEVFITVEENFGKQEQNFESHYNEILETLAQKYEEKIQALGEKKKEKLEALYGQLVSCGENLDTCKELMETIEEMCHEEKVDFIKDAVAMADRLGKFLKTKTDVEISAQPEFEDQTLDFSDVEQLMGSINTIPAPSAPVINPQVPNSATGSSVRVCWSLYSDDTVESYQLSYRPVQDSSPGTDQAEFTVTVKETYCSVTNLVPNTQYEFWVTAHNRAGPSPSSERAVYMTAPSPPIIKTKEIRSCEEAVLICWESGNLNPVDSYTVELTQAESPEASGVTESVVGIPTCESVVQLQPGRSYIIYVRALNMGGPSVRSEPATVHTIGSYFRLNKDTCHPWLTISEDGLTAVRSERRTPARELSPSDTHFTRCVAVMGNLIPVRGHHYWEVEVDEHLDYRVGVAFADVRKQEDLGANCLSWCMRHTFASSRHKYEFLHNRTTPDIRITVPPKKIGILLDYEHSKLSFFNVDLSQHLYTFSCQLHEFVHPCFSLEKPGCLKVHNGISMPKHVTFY

goga2_human GOLGA2 = target: T2, goga2_human GOLGA2 (UniProt Q08379)
T2 sequence: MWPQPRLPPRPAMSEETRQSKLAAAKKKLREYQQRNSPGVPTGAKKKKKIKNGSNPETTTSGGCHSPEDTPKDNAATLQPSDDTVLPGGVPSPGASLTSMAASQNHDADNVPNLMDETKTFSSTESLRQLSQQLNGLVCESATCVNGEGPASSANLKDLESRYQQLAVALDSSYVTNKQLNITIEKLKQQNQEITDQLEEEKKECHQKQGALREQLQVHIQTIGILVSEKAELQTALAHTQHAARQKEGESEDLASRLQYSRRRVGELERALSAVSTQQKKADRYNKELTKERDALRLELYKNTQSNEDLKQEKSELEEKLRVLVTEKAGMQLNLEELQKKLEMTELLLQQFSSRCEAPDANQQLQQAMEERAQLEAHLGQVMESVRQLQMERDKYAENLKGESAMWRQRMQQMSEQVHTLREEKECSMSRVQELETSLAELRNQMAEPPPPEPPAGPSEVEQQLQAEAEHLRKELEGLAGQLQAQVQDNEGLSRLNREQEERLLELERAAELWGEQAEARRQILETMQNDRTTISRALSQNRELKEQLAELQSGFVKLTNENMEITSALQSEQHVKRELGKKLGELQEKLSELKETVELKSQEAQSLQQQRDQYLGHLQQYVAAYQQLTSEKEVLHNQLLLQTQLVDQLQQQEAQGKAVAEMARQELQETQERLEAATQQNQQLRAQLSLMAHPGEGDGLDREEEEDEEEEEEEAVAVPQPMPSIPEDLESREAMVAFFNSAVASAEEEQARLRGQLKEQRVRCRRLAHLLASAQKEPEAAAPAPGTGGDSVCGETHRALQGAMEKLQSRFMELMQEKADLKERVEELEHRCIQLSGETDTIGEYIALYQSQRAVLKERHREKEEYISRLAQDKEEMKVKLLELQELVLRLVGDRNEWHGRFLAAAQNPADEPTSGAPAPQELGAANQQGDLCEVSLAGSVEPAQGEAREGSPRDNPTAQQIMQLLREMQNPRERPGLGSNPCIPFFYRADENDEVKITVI

TSC22D4 = TSC22D4 (UniProt Q9Y3Q8)
lmo4_human LMO4 = lmo4_human LMO4 (UniProt P61968)
prp31_human PRPF31 = prp31_human PRPF31 (UniProt Q8WWY3)
mare1_human MAPRE1 = mare1_human MAPRE1 (UniProt Q15691)
sdcb1_human SDCBP = sdcb1_human SDCBP (UniProt O00560)
ut14c_human UTP14C = ut14c_human UTP14C (UniProt Q5TAP6)
txnd5_human TXNDC5 = txnd5_human TXNDC5 (UniProt Q8NBS9)
mtus2_human MTUS2 = mtus2_human MTUS2 (UniProt Q5JR59)
gt253_human CERCAM = gt253_human CERCAM (UniProt Q5T4B2)
vtnc_human VTN = vtnc_human VTN (UniProt P04004)
mycd_human MYOCD = target: T3, mycd_human MYOCD (UniProt Q8IZQ8)
T3 sequence: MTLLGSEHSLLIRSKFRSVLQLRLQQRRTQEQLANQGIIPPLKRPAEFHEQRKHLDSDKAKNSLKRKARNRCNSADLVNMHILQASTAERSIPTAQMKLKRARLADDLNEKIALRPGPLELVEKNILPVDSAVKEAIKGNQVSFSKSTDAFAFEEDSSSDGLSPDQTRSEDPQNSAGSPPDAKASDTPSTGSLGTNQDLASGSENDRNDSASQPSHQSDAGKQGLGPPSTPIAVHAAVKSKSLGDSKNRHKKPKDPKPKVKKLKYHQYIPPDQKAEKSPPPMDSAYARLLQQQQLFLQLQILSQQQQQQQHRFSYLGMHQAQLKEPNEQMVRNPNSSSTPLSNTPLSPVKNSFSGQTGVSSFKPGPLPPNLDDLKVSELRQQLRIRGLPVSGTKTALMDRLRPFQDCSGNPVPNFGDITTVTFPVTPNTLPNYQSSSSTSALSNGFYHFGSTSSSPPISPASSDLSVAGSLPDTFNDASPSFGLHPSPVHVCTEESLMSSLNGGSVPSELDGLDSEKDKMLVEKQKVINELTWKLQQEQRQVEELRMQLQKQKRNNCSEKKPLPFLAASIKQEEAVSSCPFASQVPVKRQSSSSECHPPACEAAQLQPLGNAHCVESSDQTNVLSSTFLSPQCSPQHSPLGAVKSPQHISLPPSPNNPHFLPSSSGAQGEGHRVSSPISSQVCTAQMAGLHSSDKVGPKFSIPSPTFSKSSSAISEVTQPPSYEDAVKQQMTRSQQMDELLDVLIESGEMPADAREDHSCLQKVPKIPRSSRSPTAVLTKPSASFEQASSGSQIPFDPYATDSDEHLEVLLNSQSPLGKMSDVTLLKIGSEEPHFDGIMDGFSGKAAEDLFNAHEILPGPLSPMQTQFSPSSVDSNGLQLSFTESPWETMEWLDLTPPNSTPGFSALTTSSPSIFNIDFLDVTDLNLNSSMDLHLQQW

traf1_human TRAF1 = traf1_human TRAF1 (UniProt Q13077)
cep63_human CEP63 = cep63_human CEP63 (UniProt Q96MT8)

Sequence of Ectodysplasin-A (Homo sapiens), Q92838 R153H (Q92838 whole entry R153H): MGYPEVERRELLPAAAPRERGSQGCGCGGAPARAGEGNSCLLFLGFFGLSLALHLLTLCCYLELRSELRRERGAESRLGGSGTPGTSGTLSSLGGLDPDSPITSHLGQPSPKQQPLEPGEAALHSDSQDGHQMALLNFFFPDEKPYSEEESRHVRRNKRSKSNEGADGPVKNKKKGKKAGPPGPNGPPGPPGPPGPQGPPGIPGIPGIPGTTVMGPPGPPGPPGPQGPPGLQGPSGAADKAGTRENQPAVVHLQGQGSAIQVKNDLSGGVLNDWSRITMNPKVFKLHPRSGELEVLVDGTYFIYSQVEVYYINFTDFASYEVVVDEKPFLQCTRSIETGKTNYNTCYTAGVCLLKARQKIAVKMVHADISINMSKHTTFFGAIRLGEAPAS
Sequence of ut14c_human UTP14C (Q5TAP6 whole entry): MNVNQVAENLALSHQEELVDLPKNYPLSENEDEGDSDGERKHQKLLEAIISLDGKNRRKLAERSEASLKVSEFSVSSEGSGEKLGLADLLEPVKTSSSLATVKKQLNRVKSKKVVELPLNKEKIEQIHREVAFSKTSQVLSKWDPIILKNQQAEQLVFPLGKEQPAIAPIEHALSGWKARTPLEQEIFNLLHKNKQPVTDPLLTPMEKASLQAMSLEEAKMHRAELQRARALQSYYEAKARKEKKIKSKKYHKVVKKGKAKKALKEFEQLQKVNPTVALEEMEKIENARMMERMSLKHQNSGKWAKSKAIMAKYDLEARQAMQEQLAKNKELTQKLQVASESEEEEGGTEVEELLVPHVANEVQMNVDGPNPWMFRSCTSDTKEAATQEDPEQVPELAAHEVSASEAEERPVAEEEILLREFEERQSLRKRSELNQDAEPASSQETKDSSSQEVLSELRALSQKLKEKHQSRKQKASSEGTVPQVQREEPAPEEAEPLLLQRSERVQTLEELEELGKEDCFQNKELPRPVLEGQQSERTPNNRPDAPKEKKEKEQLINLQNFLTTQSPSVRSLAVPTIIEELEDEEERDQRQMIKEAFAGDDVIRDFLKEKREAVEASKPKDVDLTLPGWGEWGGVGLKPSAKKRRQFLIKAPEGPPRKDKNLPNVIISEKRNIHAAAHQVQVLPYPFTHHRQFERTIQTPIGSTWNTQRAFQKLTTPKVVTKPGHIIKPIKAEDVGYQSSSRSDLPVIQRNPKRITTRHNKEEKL
Sequence of Ectodysplasin-A (Homo sapiens), Q92838 A367T (Q92838 whole entry A367T): as the sequence (Q92838 whole entry R153H) above, with H153R, A367T counted along it
Sequence of prp31_human PRPF31 (Q8WWY3 whole entry): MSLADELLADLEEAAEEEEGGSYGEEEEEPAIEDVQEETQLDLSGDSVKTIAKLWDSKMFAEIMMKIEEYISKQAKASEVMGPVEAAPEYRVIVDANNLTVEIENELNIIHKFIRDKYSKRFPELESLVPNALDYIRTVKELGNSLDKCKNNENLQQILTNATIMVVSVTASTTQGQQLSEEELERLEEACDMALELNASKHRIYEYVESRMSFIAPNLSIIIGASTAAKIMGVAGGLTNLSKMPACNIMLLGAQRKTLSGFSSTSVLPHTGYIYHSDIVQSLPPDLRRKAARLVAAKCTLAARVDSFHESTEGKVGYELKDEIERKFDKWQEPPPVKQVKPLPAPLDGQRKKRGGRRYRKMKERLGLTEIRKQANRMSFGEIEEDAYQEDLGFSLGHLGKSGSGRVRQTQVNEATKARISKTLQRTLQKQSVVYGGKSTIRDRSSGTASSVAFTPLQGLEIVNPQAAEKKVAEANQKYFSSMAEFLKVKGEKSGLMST
Sequence of sdcb1_human SDCBP (O00560 whole entry): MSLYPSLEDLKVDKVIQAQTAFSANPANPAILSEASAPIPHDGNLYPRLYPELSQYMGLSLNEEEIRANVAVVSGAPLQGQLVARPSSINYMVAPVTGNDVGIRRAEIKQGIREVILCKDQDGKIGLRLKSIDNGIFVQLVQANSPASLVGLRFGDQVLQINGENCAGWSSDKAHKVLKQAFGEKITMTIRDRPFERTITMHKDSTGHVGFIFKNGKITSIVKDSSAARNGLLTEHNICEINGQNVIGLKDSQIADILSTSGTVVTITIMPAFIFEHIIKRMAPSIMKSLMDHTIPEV
Sequence of lmo4_human LMO4 (P61968 whole entry): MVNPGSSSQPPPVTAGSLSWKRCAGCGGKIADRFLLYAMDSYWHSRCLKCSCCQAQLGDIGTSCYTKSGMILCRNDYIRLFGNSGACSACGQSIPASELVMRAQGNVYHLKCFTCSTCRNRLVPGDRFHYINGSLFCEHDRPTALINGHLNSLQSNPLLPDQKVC
Sequence of mare1_human MAPRE1 (Q15691 whole entry): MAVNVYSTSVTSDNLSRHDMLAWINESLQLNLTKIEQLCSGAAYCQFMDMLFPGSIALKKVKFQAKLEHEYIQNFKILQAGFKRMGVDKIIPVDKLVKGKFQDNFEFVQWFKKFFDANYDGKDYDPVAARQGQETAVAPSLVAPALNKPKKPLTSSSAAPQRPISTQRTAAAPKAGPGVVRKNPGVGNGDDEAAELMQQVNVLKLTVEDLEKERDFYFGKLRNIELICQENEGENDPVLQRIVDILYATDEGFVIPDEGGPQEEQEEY
Sequence of fxl18_human FBXL18 (Q96ME1 whole entry): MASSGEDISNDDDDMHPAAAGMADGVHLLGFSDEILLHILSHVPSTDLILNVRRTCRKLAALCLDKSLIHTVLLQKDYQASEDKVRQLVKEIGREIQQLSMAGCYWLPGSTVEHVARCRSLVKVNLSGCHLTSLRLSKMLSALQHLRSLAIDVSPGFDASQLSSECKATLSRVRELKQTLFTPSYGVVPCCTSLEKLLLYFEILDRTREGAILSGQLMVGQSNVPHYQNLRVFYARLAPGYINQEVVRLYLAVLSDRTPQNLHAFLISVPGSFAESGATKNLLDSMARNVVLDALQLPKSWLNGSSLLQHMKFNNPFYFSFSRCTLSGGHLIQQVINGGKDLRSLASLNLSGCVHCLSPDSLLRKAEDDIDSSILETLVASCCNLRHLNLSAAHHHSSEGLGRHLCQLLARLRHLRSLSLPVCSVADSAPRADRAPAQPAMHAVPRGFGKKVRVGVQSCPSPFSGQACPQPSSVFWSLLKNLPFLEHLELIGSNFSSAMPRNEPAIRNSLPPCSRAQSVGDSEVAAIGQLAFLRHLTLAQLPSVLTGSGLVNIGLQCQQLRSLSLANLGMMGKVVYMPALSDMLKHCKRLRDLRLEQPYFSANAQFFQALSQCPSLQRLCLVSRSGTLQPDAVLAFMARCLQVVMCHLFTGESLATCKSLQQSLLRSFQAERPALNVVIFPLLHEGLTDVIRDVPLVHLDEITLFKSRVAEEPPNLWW
Sequence of ppla_human PLN (P26678 whole entry): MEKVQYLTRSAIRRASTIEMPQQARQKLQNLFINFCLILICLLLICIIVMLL
Sequence of txnd5_human TXNDC5 (Q8NBS9 whole entry): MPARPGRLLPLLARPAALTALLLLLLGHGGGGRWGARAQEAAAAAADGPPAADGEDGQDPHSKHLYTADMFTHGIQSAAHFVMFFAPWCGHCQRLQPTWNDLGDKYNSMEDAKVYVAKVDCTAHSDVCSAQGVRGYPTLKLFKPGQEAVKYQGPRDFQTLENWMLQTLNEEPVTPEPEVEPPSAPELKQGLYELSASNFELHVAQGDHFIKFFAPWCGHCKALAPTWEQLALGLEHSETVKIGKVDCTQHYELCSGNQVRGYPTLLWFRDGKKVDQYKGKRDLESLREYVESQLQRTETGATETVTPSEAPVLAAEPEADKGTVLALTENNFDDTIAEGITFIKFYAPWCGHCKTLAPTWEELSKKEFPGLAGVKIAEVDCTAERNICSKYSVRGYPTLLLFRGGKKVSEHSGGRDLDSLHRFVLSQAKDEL
Sequence of mal_human MAL (P21145 whole entry): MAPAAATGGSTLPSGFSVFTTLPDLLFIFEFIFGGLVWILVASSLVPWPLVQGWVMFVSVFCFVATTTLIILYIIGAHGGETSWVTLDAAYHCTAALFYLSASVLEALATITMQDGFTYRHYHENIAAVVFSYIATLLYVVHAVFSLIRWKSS
Sequence of vatl_human ATP6V0C (P27449 whole entry): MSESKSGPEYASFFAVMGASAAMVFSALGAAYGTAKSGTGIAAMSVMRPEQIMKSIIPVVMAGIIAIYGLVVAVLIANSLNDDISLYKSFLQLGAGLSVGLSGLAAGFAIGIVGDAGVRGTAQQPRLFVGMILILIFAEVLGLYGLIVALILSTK
Sequence of emp3_human EMP3 (P54852 whole entry): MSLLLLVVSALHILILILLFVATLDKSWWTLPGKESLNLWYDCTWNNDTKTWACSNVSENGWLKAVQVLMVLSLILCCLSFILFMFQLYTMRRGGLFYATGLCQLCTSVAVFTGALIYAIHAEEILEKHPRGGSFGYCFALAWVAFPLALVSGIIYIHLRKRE
Sequence of sc22a_human SEC22A (Q96IW7 whole entry): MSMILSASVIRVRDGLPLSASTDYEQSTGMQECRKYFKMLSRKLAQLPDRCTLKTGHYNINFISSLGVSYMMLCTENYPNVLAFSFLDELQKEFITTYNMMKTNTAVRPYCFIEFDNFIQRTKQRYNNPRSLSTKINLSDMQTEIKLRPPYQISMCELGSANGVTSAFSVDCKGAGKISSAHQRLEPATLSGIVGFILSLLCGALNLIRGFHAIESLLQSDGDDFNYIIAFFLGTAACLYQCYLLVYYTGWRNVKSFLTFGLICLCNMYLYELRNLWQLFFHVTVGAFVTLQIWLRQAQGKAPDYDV
Sequence of TSC22D4 (Q9Y3Q8 whole entry): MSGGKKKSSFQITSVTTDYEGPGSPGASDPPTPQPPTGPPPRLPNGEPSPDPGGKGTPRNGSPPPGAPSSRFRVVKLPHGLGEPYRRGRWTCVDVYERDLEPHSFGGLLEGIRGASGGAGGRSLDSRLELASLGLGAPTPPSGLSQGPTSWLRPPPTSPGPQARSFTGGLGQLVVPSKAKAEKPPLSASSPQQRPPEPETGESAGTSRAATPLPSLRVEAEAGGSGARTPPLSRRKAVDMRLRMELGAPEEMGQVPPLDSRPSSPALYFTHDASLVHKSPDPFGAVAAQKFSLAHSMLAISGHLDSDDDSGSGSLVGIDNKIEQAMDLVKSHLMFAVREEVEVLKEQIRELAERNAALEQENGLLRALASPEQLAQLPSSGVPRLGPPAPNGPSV

Substance: NEDD4-like E3 ubiquitin-protein ligase WWP2 (Homo sapiens), O00308 R215W
- effect of a mutation on the interaction (erep1_human ENTREP1): with no effect
- effect of a mutation on the interaction (hnrl1_human HNRNPUL1): with no effect
- effect of a mutation on the interaction (fxl18_human FBXL18): with no effect
- effect of a mutation on the interaction (pdli7_human PDLIM7): with no effect

Substance: Ectodysplasin-A (Homo sapiens), Q92838 R153H
- effect of a mutation on the interaction (ppla_human PLN): with no effect
- effect of a mutation on the interaction (vatl_human ATP6V0C): with no effect
- effect of a mutation on the interaction (sc22a_human SEC22A): with no effect
- effect of a mutation on the interaction (mal_human MAL): with no effect
- effect of a mutation on the interaction (emp3_human EMP3): with no effect

Substance: Parafibromin (Homo sapiens) (from UniProt Q6P1J9) R156H
- effect of a mutation on the interaction (hem1_human ALAS1): with no effect
- effect of a mutation on the interaction (fsd2_human FSD2): with no effect
- effect of a mutation on the interaction (goga2_human GOLGA2): with no effect

Substance: Nuclear receptor-binding protein (Homo sapiens), Q9UHY1 P432L
- effect of a mutation on the interaction (TSC22D4): with no effect

Substance: Myomegalin (Homo sapiens), Q5VU43 M783I
- effect of a mutation on the interaction (lmo4_human LMO4): with no effect
- effect of a mutation on the interaction (prp31_human PRPF31): with no effect
- effect of a mutation on the interaction (mare1_human MAPRE1): with no effect
- effect of a mutation on the interaction (sdcb1_human SDCBP): with no effect
- effect of a mutation on the interaction (ut14c_human UTP14C): with no effect

Substance: Mannose-1-phosphate guanylyltransferase catalytic subunit beta (Homo sapiens), Q9Y5P6 H126D
- effect of a mutation on the interaction (txnd5_human TXNDC5): with no effect

Substance: Zinc finger protein 224 (Homo sapiens), Q9NZL3 Q447H
- effect of a mutation on the interaction (mtus2_human MTUS2): with no effect

Substance: Golgi-associated PDZ and coiled-coil motif-containing protein (Homo sapiens) (from UniProt Q9HD26) G53E
- effect of a mutation on the interaction (gt253_human CERCAM): disrupting interaction strength
- effect of a mutation on the interaction (vtnc_human VTN): disrupting interaction strength
- effect of a mutation on the interaction (mycd_human MYOCD): disrupting interaction strength

Substance: Myomegalin (Homo sapiens), Q5VU43 E391A
- effect of a mutation on the interaction (lmo4_human LMO4): with no effect
- effect of a mutation on the interaction (prp31_human PRPF31): with no effect
- effect of a mutation on the interaction (mare1_human MAPRE1): with no effect
- effect of a mutation on the interaction (sdcb1_human SDCBP): with no effect
- effect of a mutation on the interaction (ut14c_human UTP14C): with no effect

Substance: Zinc finger protein 224 (Homo sapiens), Q9NZL3 K640E
- effect of a mutation on the interaction (mtus2_human MTUS2): with no effect

Substance: Zinc finger protein 502 (Homo sapiens), Q8TBZ5 T184A
- effect of a mutation on the interaction (traf1_human TRAF1): with no effect

Substance: NEDD4-like E3 ubiquitin-protein ligase WWP2 (Homo sapiens), O00308 R178Q
- effect of a mutation on the interaction (fxl18_human FBXL18): with no effect

Substance: Parafibromin (Homo sapiens) (from UniProt Q6P1J9) L95P
- effect of a mutation on the interaction (hem1_human ALAS1): disrupting interaction strength
- effect of a mutation on the interaction (fsd2_human FSD2): disrupting interaction strength
- effect of a mutation on the interaction (goga2_human GOLGA2): disrupting interaction strength

Substance: Histone-lysine N-methyltransferase EZH2 (Homo sapiens), Q15910-2 R288Q
- effect of a mutation on the interaction (cep63_human CEP63): with no effect

Substance: Nuclear receptor-binding protein (Homo sapiens), Q9UHY1 V365I
- effect of a mutation on the interaction (TSC22D4): with no effect

Substance: Histone-lysine N-methyltransferase EZH2 (Homo sapiens), Q15910-2 N640K
- effect of a mutation on the interaction (cep63_human CEP63): with no effect

Substance: NEDD4-like E3 ubiquitin-protein ligase WWP2 (Homo sapiens), O00308 H401R
- effect of a mutation on the interaction (erep1_human ENTREP1): with no effect
- effect of a mutation on the interaction (hnrl1_human HNRNPUL1): with no effect
- effect of a mutation on the interaction (fxl18_human FBXL18): with no effect
- effect of a mutation on the interaction (pdli7_human PDLIM7): with no effect

Substance: Myomegalin (Homo sapiens), Q5VU43 I612T
- effect of a mutation on the interaction (lmo4_human LMO4): with no effect
- effect of a mutation on the interaction (prp31_human PRPF31): with no effect
- effect of a mutation on the interaction (mare1_human MAPRE1): with no effect
- effect of a mutation on the interaction (sdcb1_human SDCBP): with no effect
- effect of a mutation on the interaction (ut14c_human UTP14C): with no effect

Substance: Parafibromin (Homo sapiens) (from UniProt Q6P1J9) R147C
- effect of a mutation on the interaction (hem1_human ALAS1): with no effect
- effect of a mutation on the interaction (fsd2_human FSD2): with no effect
- effect of a mutation on the interaction (goga2_human GOLGA2): with no effect

Substance: Mannose-1-phosphate guanylyltransferase catalytic subunit beta (Homo sapiens), Q9Y5P6 R158Q
- effect of a mutation on the interaction (txnd5_human TXNDC5): with no effect

Substance: Ectodysplasin-A (Homo sapiens), Q92838 A367T
- effect of a mutation on the interaction (ppla_human PLN): with no effect
- effect of a mutation on the interaction (vatl_human ATP6V0C): with no effect
- effect of a mutation on the interaction (sc22a_human SEC22A): with no effect
- effect of a mutation on the interaction (mal_human MAL): with no effect
- effect of a mutation on the interaction (emp3_human EMP3): with no effect
